Results from patent US20070134236A1 (Biogen, published 2007).

T1: human MCP-2 (human, UniProt P80075 24-99)
T1 construct: also called hMCP-2; huMCP-2
T1 sequence (looked up): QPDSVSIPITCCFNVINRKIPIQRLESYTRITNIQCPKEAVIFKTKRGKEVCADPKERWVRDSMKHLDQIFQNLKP

T2: human DC-CK (human, UniProt P55774 21-89)
T2 sequence (looked up): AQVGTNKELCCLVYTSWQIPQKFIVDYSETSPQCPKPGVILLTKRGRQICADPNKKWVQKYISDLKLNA

T3: human fractalkine (human, UniProt P78423 25-100, limits assumed)
T3 sequence (looked up): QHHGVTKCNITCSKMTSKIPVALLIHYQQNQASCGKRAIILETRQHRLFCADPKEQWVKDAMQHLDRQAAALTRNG


Assays:
human MCP-1 = biological target: T4, human MCP-1 (human, UniProt P13500 24-99); experiment: KinExA, in solution, Fab
T4 construct: also called hMCP-1; huMCP-1
Description: (§1) 1 ml of MCP-1 at a concentration of 10 μg/ml in NaHCO₃ was added to an amount of beads equivalent to 1 ml of the original slurry. The beads were rocked overnight at 4° C. Beads were spun down and washed once with 1M Tris, pH 8.0, then resuspended in 1M Tris pH 8.0 with 1% BSA, 0.02% azide. The beads were rocked at room temperature for one hour then stored at 4° C. in this buffer for the duration of the experiments.
(§2) The KinExA 3000 measures protein-protein interaction in solution, and is ideally suited for measuring affinities of antibodies to antigens. In the typical experiment, antigen (MCP) is immobilized on a bead, antibody is flowed over a column of these beads at a given concentration, and the antibody that binds to the beads is detected using a fluorescent secondary. Antibody at a fixed concentration is then incubated with different concentrations of antigen in solution and the amount of free antibody is measured by flowing the mixture over the bead column quickly enough that no re-equilibration occurs between solution and solid phase. The amount of antibody remaining free is plotted against the concentration of antigen added and the data are fit to a quadratic equation to determine the affinity of the interaction in solution.
(§3) In these experiments, the only difference to the typical experiment described above is that instead of using intact antibody, a Fab fragment of 11K2 was used. Earlier KimExA experiments using the intact murine 11K2 mAb binding to MCP-1 and MCP-2 gave biphasic curves that the software could not interpret. This may be due to these proteins acting as dimers, so to eliminate the dimer/dimer interaction we generated Fab fragments. The binding of the 11K2 Fab fragments to MCP-1 and MCP-2 produced curves that the KinExA software could fit.

human MCP-2 = biological target: T1, human MCP-2; experiment: KinExA, in solution, Fab
Description: as §1, §2, §3

human MCP-4 = biological target: T5, human MCP-4 (human, UniProt Q99616 24-98, limits assumed); experiment: ELISA, purified mAb
T5 construct: also called hMCP-4
Description: (§4) ELISA specificity assays were performed using purified monoclonal antibodies to confirm the binding specificities of the supernatant MCP-specific monoclonal antibodies described above. Antibodies were purified by Protein A affinity column chromatography, according to standard methods known in the art.
(§5) ELISA was performed as previously described in Example 1. Briefly, MaxiSorp 384 well plates were coated with 15-20 μl antigen in PBS. Recombinant purified human antigens included: MCP-1, MCP-2, MCP-3, MCP-4, IL-8, eotaxin, murine MCP-1 (JE), murine MCP-3, murine MCP-5, and rat MCP-1. All antigens, including MCP-3, were immobilized. Plates were washed and purified monoclonal antibody (10 μg/ml) was added to each well and incubated for 1 hour at room temperature. Plates were washed and wells were incubated with 20 μl/well of a 1:25,000 dilution of goat anti-mouse IgG peroxidase conjugate (Jackson Catalog Number 515-036-003). Plates were incubated for 1 hour at room temperature, washed, and 20 μl/well of substrate (, tetramethylbenzidine, Jackson, Catalog Number 515-036-062) was added. Reaction was allowed to proceed and stopped by addition of 20 μl/well of 2M H₂SO₄. Antibodies 1A1 bound specifically to hMCP-1, hMCP-2, hMCP-3, and mMCP-1. Antibodies 11K2, 4N4, 5A13, 6D21, 615, and 7H1 bound specifically to hMCP-1, hMCP-2, hMCP-3, mMCP-1, mMCP-3, and mMCP-5.

human eotaxin = biological target: T6, human eotaxin (human, UniProt P51671 24-97); experiment: ELISA, purified mAb
T6 construct: also called hEotaxin
Description: as §4, §5

human IL-8 = biological target: T7, human IL-8 (human, UniProt P10145 28-99, limits assumed); experiment: ELISA, purified mAb
T7 construct: also called hIL8
Description: as §4, §5

human Gcp-2 = human Gcp-2 (human, UniProt P80162 38-114, limits assumed); experiment: ELISA, supernatant
Description: (§6) MaxiSorp 384 well plates were coated with 15-20 μl antigen in PBS. Recombinant purified human antigens included: MCP-1, MCP-2, MCP-3, MCP-4, IL-8, eotaxin, fractalkine, Gcp-2, DC-CK (Gcp-2 and DC-CK are also chemokines). Plates were incubated with antigen for 2 hours at 37° C. or overnight at 4° C. Non-specific sites were blocked with 80 μl/well of 1% BSA/PBS for 1 hour at room temperature. Plates were washed and 15 μl of hybridoma supernatant was added to each well and incubated for 1 hour at room temperature. Plates were washed and wells were incubated with 20 μl/well of a 1:25 000 dilution of goat anti-mouse IgG peroxidase conjugate (Jackson Catalog Number 515-036-003). Plates were incubated for 1 hour at room temperature, washed, and 20 μl/well of substrate (TMB, tetramethylbenzidine, Jackson, Catalog Number 515-036-062) was added. Reaction was allowed to proceed and stopped by addition of 20 μl/well of 2M H₂SO₄. Reactive clones were picked for further analysis. Isotyping of hybridoma supernatants was performed by antigen-dependent ELISA. Briefly, wells were coated with 50 μl of human MCP-1 (5 μg/ml) for 1 hour at 37° C. Wells were washed 4 times and blocked with PBS/1% BSA. Isotyping of hybridoma supernatants was then performed using a mouse immunoglobulin screening/isotyping kit (Zymed Laboratories, San Francisco, —CA) as recommended by the manufacturer.

human DC-CK = biological target: T2, human DC-CK; experiment: ELISA, supernatant
Description: as §6

human fractalkine = biological target: T3, human fractalkine; experiment: ELISA, supernatant
Description: as §6

Binder	Kd (human MCP-1) [nM]	Kd (human MCP-2) [nM]	binding result (human MCP-4)	binding result (human eotaxin)	binding result (human IL-8)	binding result (human Gcp-2)	binding result (human DC-CK)	binding result (human fractalkine)
Fab fragment of chimeric 11K2 (Fab, V domains shown, also called Ch11K2) VH: EVQLQQSGAELVKAGASVKLSCPASGLNIKDTYMHWVKQRPEQGLEWIGRIDPANGNTKFDPKFQGKATITADTSSNTAYLQLSSLTSEDTAVYYCARGVFGFFDYWGQGTTLTVSS VL: DIQMTQSSSSFSVSLGDRVTITCKATEDIYNRLAWYQQKPGSAPRLLISGATSLETGVPSRFSGSGSGKDYTLSITSLQTEDVATYYCQQFWSAPYTFGGGTKLEIKR	0.0196	0.226	–	–	–	–	–	–
Fab fragment of humanized 11K2 H1L1 (Fab, V domains shown) VH: QVQLVQSGAEVKKPGSSVKVSCKASGLNIKDTYMHWVRQAPGQGLEWIGRIDPANGNTKFDPKFQGRATITADTSTSTAYMELSSLRSEDTAVYYCARGVFGFFDYWGQGTTVTVSS VL: DIQMTQSPSSLSASVGDRVTITCKATEDIYNRLAWYQQKPGKAPKLLISGATSLETGVPSRFSGSGSGKDYTLTISSLQPEDFATYYCQQFWSAPYTFGGGTKVEIKR	0.0364	0.725	–	–	–	–	–	–
Fab fragment of humanized 11K2 H2L2 (Fab, V domains shown) VH: QVQLVQSGAEVKKPGSSVKVSCKASGLTISDTYMHWVRQAPGQGLEWMGRIDPANGNTKFDPKFQGRVTITADTSTSTAYMELSSLRSEDTAVYYCARGVFGFFDYWGQGTTVTVSS VL: DIQMTQSPSSLSASVGDRVTITCKATEDIYNRLAWYQQKPGKAPKLLISGATSLETGVPSRFSGSGSGTDYTLTISSLQPEDFATYYCQQFWSAPYTFGGGTKVEIKR	0.0775	3.2	–	–	–	–	–	–
Fab fragment of humanized 11K2 H2L1 (Fab, V domains shown) VH: QVQLVQSGAEVKKPGSSVKVSCKASGLTISDTYMHWVRQAPGQGLEWMGRIDPANGNTKFDPKFQGRVTITADTSTSTAYMELSSLRSEDTAVYYCARGVFGFFDYWGQGTTVTVSS VL: DIQMTQSPSSLSASVGDRVTITCKATEDIYNRLAWYQQKPGKAPKLLISGATSLETGVPSRFSGSGSGKDYTLTISSLQPEDFATYYCQQFWSAPYTFGGGTKVEIKR	0.064	0.94	–	–	–	–	–	–
Fab fragment of humanized 11K2 H1L2 (Fab, V domains shown) VH: QVQLVQSGAEVKKPGSSVKVSCKASGLNIKDTYMHWVRQAPGQGLEWIGRIDPANGNTKFDPKFQGRATITADTSTSTAYMELSSLRSEDTAVYYCARGVFGFFDYWGQGTTVTVSS VL: DIQMTQSPSSLSASVGDRVTITCKATEDIYNRLAWYQQKPGKAPKLLISGATSLETGVPSRFSGSGSGTDYTLTISSLQPEDFATYYCQQFWSAPYTFGGGTKVEIKR	0.0623	0.712	–	–	–	–	–	–

Continued, values first:

Kd (human MCP-1) [nM]	Kd (human MCP-2) [nM]	binding result (human MCP-4)	binding result (human eotaxin)	binding result (human IL-8)	binding result (human Gcp-2)	binding result (human DC-CK)	binding result (human fractalkine)	Binder
–	–	no binding (tested: 10 µg/ml)	no binding (tested: 10 µg/ml)	no binding (tested: 10 µg/ml)	no binding	no binding	no binding	monoclonal antibody 6D21 (antibody, mouse IgG1, V domains shown, mouse IgG1; also called 6D21.1) VH: EVQLQQSGAELVKAGASVKLSCPASGLNIKDTYMHWVKQRPEQGLEWIGRIDPANGNTKFDPKFQGKATITADTSSNTAYLQLSSLTSEDTAVYYCARGVFGFFDYWGQGTTLTVSS VL: DIQMTQSSSSFSVSLGDRVTITCKATEDIYNRLAWYQQKPGSAPRLLISGATSLETGVPSRFSGSGSGKDYTLSITSLQTEDVATYYCQQFWSAPYTFGGGTKLEIK
–	–	no binding (tested: 10 µg/ml)	no binding (tested: 10 µg/ml)	no binding (tested: 10 µg/ml)	no binding	no binding	no binding	monoclonal antibody 5A13 (antibody, mouse IgG1, V domains shown, mouse IgG1; also called 5A13.1) VH: EVQLQQSGAELVKAGASVKLSCPASGLNIKDTYMHWVKQRPEQGLEWIGRIDPANGNTKFDPKFQGKATITADTSSNTAYLQLSSLTSEDTAVYYCARGVFGFFDYWGQGTTLTVSS VL: DIQMTQSSSSFSVSLGDRVTITCKATEDIYNRLAWYQQKPGSAPRLLISGATSLETGVPSRFSGSGSGKDYTLSITSLQTEDVATYYCQQFWSAPYTFGGGTKLEIK
–	–	no binding (tested: 10 µg/ml)	no binding (tested: 10 µg/ml)	no binding (tested: 10 µg/ml)	no binding	no binding	no binding	monoclonal antibody 4N4 (antibody, mouse IgG1, V domains shown, mouse IgG1; also called 4N4.1) VH: EVQLQQSGAELVKAGASVKLSCPASGLNIKDTYMHWVKQRPEQGLEWIGRIDPANGNTKFDPKFQGKATITADTSSNTAYLQLSSLTSEDTAVYYCARGVFGFFDYWGQGTTLTVSS VL: DIQMTQSSSSFSVSLGDRVTITCKATEDIYNRLAWYQQKPGSAPRLLISGATSLETGVPSRFSGSGSGKDYTLSITSLQTEDVATYYCQQFWSAPYTFGGGTKLEIK
–	–	no binding (tested: 10 µg/ml)	no binding (tested: 10 µg/ml)	no binding (tested: 10 µg/ml)	no binding	no binding	no binding	monoclonal antibody 6I5 (antibody, mouse IgG1, V domains shown, mouse IgG1; also called 6I5.1; 615) VH: EVQLQQSGAELVKAGASVKLSCPASGLNIKDTYMHWVKQRPEQGLEWIGRIDPANGNTKFDPKFQGKATITADTSSNTAYLQLSSLTSEDTAVYYCARGVFGFFDYWGQGTTLTVSS VL: DIQMTQSSSSFSVSLGDRVTITCKATEDIYNRLAWYQQKPGSAPRLLISGATSLETGVPSRFSGSGSGKDYTLSITSLQTEDVATYYCQQFWSAPYTFGGGTKLEIK
–	–	no binding (tested: 10 µg/ml)	no binding (tested: 10 µg/ml)	no binding (tested: 10 µg/ml)	no binding	no binding	no binding	monoclonal antibody 7H1 (antibody, mouse IgG1, V domains shown, mouse IgG1; also called 7H1.1) VH: EVQLQQSGAELVKAGASVKLSCPASGLNIKDTYMHWVKQRPEQGLEWIGRIDPANGNTKFDPKFQGKATITADTSSNTAYLQLSSLTSEDTAVYYCARGVFGFFDYWGQGTTLTVSS VL: DIQMTQSSSSFSVSLGDRVTITCKATEDIYNRLAWYQQKPGSAPRLLISGATSLETGVPSRFSGSGSGKDYTLSITSLQTEDVATYYCQQFWSAPYTFGGGTKLEIK
